Results from the RNAGym collection of RNA variant scans (doi:10.1073/pnas.2313332121).
This sample holds only a part of the variants without activity.

B1: TPR 5TU (parent)
chain: GGAUCUUCUCGAUCUAACAAAAAAGACAAAUCUGCCACAAAGCUUGAGAGCAUCUUCGGAUGCAGAGGCGGCAGCCUUCGGUGGCGCGAUAGCGCCAACGUUCUCAACUAUGACACGCAAAACGCGUGCUCCGUUGAAUGGAGUUUAUCAUG

Variants of: B1
Experiment: polymerase ribozyme fitness, log enrichment relative to wild type (log ratio); higher = more active; in vitro selection for triplet polymerase activity
Outline: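 Fitness compares each genotype's enrichment to that of the wild type on a logarithmic scale, averaging replicates with inverse-variance weights. The logarithm is base 2. Enrichment came from Illumina sequencing of input and output libraries after one triplicate round of in vitro selection, which included frozen incubation at −7 °C, of PCR-built, transcribed mutant libraries of each subunit of a heterodimeric triplet polymerase ribozyme. Only genotypes with ≥10 input reads and ≥1 read per output were kept.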

Variant	polymerase ribozyme fitness (log ratio)
GGAUCUUCUCGAUCUAACAAAAAAGACAAAUCUGCCACAAAGCUUGAGAGCAUCUUCGGAUGCAGAGGCGGCAGCCUUCGGUGGCGCGAUAGCACCAACGUUCUCAACUAUGACACGCAAAACGCGUGCUCCGUUAAAUGGAGUUUAUCAUG	-0.0776
GGAUCUUCUCGAUCUAACAAAAAAGAUAAAUCUGCCACAAAGCUUGAGAGCAUCUUCGGAUGCAGAGGCCGCAGCCUUCGGUGGCGCGAUAGCGCCAACGUUCUCAACUAUGACACGCAAAACGCGUGCUCCGUUGAGUGGAGUUUAUCAUG	≤ -4.2
GGAUCUUCUCGAUCUAACAAAAAAGACAAAUCUGCCACAAUGCUUGAGAGCAUCUUCGGAUGCAGAGGCGGCAGCCUUCGGUGGCGCGAUAGCGCUAACGUUCUCAACUAUGACACGCAAACCGCGUGCUCCGUUGAAUGGAGUUUAUCAUG	-1.02
GGAUCUUCUCGAUAUAACAAGAAAGACAAAUCUGCCACAAAGCUUGAGAGCAACUUCGGAUGCAGAGGCGGCAGCCUUCGGUGGUGCGAUAGCGCCAACGUUCUCAACUAUGACACGCAAAACGCGUGCUCCGUUGAAUGGAGUUUAUCAUG	-3.58
GGAUCUUCUCGAUCUUACAAAAAAGACAAAUCUGCAACAAAGCUUGAGAGCAUCUUCGGAUGCAGAGGCGGCAGCCUUCGGUGGCGCGAUAUCGCCAACGUUCUCAACUAUGACACGCAAAACGCGUGCUCCGUUGAAUGGAGUUUAUCUUG	≤ -4.2
GGAUCUUCUCGAUCUAACAAAAAAGACAAAUCUGCCACAAAGCUUGAGAGCAUCUUCGGAUGCAGAGGCGGCAGCCUUCGGUGGAGCGAUAGCGCCAACGUUCUUAACUAUGACACGCAAAACGCGUGCUCCGUUGAAUGGAGUUUAUCGUG	-2.08
GGAUCUUCUCGAUCUAACAAAUAAGACAAAUCUGCCACAAAGCUUGAGAGCAUUUUCGGAUGCAGAGGCGGCAGCCUUCGGUGGCGCCAUAGCGCCAACGUUCUCGACUAUGACACGCAAAACGCGUGCUCCGUUGAAUGGAGUUAAUCAUG	≤ -4.2
GGAUCUUCUCGAUCUAACAAAAAAGACAAAUCUGCCACAAAGCUUGAGAGCAUCUUCGGAUGCAGAGGCGGCAGCCUUCGGUGGCGCGAUAGCGCCAACGUUCUCAACUAUGACAUGGAAAACGCGUGCUCCGUUGAAUGGAGUUUAUCAUG	0.0696
GGAUCUUCUCGAUCUUACAAAUAAGACAAAUCUGCCACAAAGCUUGAGAGCCUCUUCGGAUGCAGAGGCGGCAGCCUUCGGUGGCGAGAUAGCGCCAACGUUCUCACCUAUGACACGCAAAACGAGUGCUCCGCUGAAUGGAGUUUAUCAUG	≤ -4.2
GGAUCUUCUCGAUCUAACAAAAAAGACAAAUCUGCUACAAAGCUUGAGAGCAUCUUCGGAUGCAGAGGCGGCAGCCUUCGGUGGAGCGAUAGAGCCAACGUUCUCAACUAUGAUACGCAAAACGCGUGCUCCGUUGAAUGGAGUUUAUCAUG	≤ -4.2
GGAUCUUCUCGAUCUAACAAAAAAGACAAAUCUGCCACAAAGCUUGAGAGCAUCUACGGAUGCAGAGGCGGCAGCCUUCGGUGGCGCGAUAGAGCCAGCGUUCUCAACUAUGACACGCAAAACGCGUGCUCCGUUGAAUGGAGUUUAUCAUG	-2.63
GGAUCUUCUCGAUCUAACAAAAAAGACAAAUCUGCCACAACGCUUGAGCGCAUCUUCGGAUGCAGAGGCGGCAGCCCUCGGUGGCCCGAUAGCGCUAACGGUCUCAACUAUGACACGGAAAACGCGUGCUCCGUUGAAUGGAGUUUAUCAUG	≤ -4.2
GGAUCUUCUCGAUCUAACAAAAAAGACAAAUCUGCCACAAAGCUUAAGAGCAUCUUCGGAUGCAGAGGCGGCAGCCUUCGGUGGCGCGAUAGCGCCAACGUUCUCAACUAUGACACGCAAAACGAGUGCUCCGCUGAAUGGAGUUUAUCAUG	-0.78
GGAUCUUCUCGAUCUAACAAAAAAGACAAAUCUGCCACAAAGCUUGAGAGCAUCUUCGGAUGCAGAGGCGGCAGCCUUCGGUGGCGCGACAGCGCCAACGUUCUCAACUAUGACACGCAAAACGCGUGCUCCGUUGAAUGGAGUGUAUCAUG	≤ -4.2
GGAUCUUCUCGAUCUAACAAAAAAGACAAAUCUGCCACAAAGCUUGAGAGCAACUUCGGAUGCAGAGGCGGCAGCCUUCGGUGACGUGAUAGCGCCAACGUUCUCGACUAUGACACGCAAAACGCGUGCUCCGUUGAAUGGAGUUUAUCAUG	-3.23
GGAUCUUCUCGAUCUAACAAAAAAGACAAAUCUUCCACAAAGCUUGCGAGCAUCUUCGGAUGCAGAAGCGGCAGCCUUAGGUGCCGCGAUAGCGACAACGUUCUCAACUAUGACACGCAAAAGGCGUGCUCCGUGGAAUGGAGUUUAUCAUG	≤ -4.2
GGAUCUUCUCGAUCUAACAAAAAAGACAAAUCUGCCACAAAGCUUGCGAGCAUGUUCGGAUGCAGAGGCGGCAGCCUUCGGUGGCGCGAUAGCGCCAACGUUCUCAACUAUGACACGCAAAACGCGUGCUCCGUUGAAUGGAGUUUAUCAUG	-1.14
GGAUCCUCUCGAUCUAACAAAAAAGACAAAUCUGCCAUAAAGCUUGAGAGCAUCUUCGGAUGCAGAGGCGGCAGCCUUCGGUGGCGCGAUAGCGCCAACGUUCUCAACUAUGACACGCAAUACGCGAUCUCCGUUGAAUGGAGUUUAUCAUG	-4.07
GGAUCUUCUCGAUCUAACAAAAAAGGCAAAUCUGCCACAAAGCUUGAGAGCAACUUCGGAUGCAGAGGCGGCAGCCUUCGGUGGCGCGAUAGCGCCAACGUUCUCAACUAUGACACGCAAAACGCGUGCUCCGUUGAAUGGAGUUUAUCAUG	-4.06

Variant	polymerase ribozyme fitness (log ratio)
GGAUCUUCUCGAUCUAACAAAAAAGACAAAUCUGCCACAAAGCUUGAGAGCAUCUUCGGAUGCAGAGGCGGCAGCCUUCGCUGGCGCGAUAGCGCCAACGUUCUCAACUAUGACACUCAAAACGCGUGCUCCGUUGAAUGGAGUUUAUCAUG	0.139
GGAUCUUCUCGAUCUAACAAAAAAGACUAAUCUGCCACAAAGCUUGAGAGCAUCUUCGCAUGCAGAGGCGGCAGCCUUCGGUGGCGCGAUAGUGCCAACGUUCUCAACUAUGACACGCAAAACGCGUGCUCCGUUGAGUGGAGUUUAUCAUG	≤ -4.2
GGAUCUUCUCGAUCUAACAAAAAUGACAAAUCUGCCACAAAGCUUGAGAGCAUCUUCGGAUGCAGAGGCGGCAGCCUCCGGUGGCGAGAUAGCGCCAACGUUCUCAACUAUGACACGCAAAACGCGUGCUCCGUUGAAUGGAGUUUAUCAUG	≤ -4.2
GGAUCUUCUCGAUCUAACAAAAAAGACAAAUCUGCCACAAAGCUUGAGAGCAUCUACGGAUACAGAGGCGGCAGCCUCCGGUUGCGCGAUAGCGCCAACGUUCUCAACUAUGACACGCAAAACGCGUGCUCCGUUGAAUGGAGUUUAUCAUG	-3.55
GGAUCUUCUCGAUCUAACAAAAAAGACAAAUCUGCCACAAAGCUUGAGAGCAUCUUCGGAUGCAGAGGCGGCAGCCUUCGGUGGCGCCAUAGCGCCAACGUUCUAAACUAUGACACCCAAAACGCGUGCUCCGUUGAAUGAAGUUUUUCAUG	≤ -4.2
GGAUCUUCUAGAUCUAACAAAAAAGACAAAUCUGCCACAAAGCUUGAGAGCAUCUUCGGAUGCAGAGGCGGCAGCCUUCGGUGGAGCGAUAGCGCCAACGUUCUCAACUAUGACACGCAAAACGCGUGCUCCGUUGAAUGGAGUUUAUCAUG	-3.53
GGAUCUUCUCGAUCUAACAAAAAAGACAAAUCUGCCACAAAGCUUCAGAGCAUCGUCGGAUGCAGAGGCGGCAGCCUUCGGUGGCGCGAUAGCGCCAACGUUCUCAACUAUGACACGCAAAACGCGUGCUCCGUUGAAUGGAGAUUAUCAUG	-1.97
GGAUCUUCUCGAUCUAACAAAAAAGACAAAUCUGCCACAAAGCUUGAGAGCCUCUUCGGAUGCAGGGGCGUCAGCCUUCGGUGGCGCGAUAGCGCCAACGUUCUCAACUAUGACACGCAAAACGUGUGCUCCGUUGAAUGGAGUUUAUCAUG	≤ -4.2
GGAUCUUCUCGAUCUAACAAAAAAGACAAAUCUGCCACAAAGCUUGAGAGCAUCUUCGGAUGCAGAGGCGGCAACCUUCGGUGGCGCGACAGCACCAUCGUUCUCAACUAUGACACGCAAAACGCGUGCUCCGUUGAAUGGAGUUUAUCAUG	≤ -4.2
GGAUCUUCUCGAUCUAACAAAAAAGACAAAUCUGCCACAAAGCUUGAGAGCAUCUUCAGAUGUAGAGGCGGCAGCCUUCGGUGGCGCGAUAGAGCCAACGUUCUAAACUAUGACACGCAAAACGCGUGCUCCGUUGAAUGGAGUUUAUCAUG	-4.05
GGAUCUUCUCGAUCUAACAAAAAAGACAAAUCUGCCCCAAAGCUUGAGAGCAUCUUCGGAUGCAGAGGCGGCAGCCUUCGGUGGCGAGAUAGCGCCAACGUUCUCAACUAUGACACGCAAAACGCGUGCUCCGUUGAAUGGAGUUUAUCAUG	≤ -4.2
GGAUCGUCUCGAUCUAACAAAAAAGACAAAUCUGCCACAAAGCUUGAGAGCAUCUUCGGAUGCAGAGGCGGCAGCCUUCGGUGGCGCGAUAGCACCAACGUUCUCAACUAUGACCCGCAAAACGCGUGCUCCGUUGAAUGGAGUUUAUCAUG	-1.5
GGAUCUUCUCGAUCUAACAAAAAAGACAAAUCUGCCACAAAGCUUGAGAUCAUCUUCGGAUGCAGAGGCGGCAGCCUUCGGUGGCGCGAUAGCGCCAACGUUCUCAUCUAUGACACGCAAAACGCGUGCUCCGUUGAAUGGAGUUUAUCAUG	-3.73
GGAUCUUCUCGAUCUAACAACAAAGACAAAUCUGCCACAAAGCUUGAGAGCAUCUUCAGAUGCAGAGGCGGCAGCCUUCGGUGGCGCGAUAGUGCCAACGUGCUCAACUAUGACACGCAAAACGCGUGCUGCGUUGAAUGGAGUUUAUCAUG	≤ -4.2
GGAUCUUCUCGAUCUAACAAUAAAGACAAAUCUGUCACAAAGCUUGAGAGCAUCUUCAGAUGCAGAGACGGCAGCCUUCGGUGGCGCGAUAGCGCCAACGUUCUCAACUAUGACGCGUAAAACGCGUGCUCCGUUGAAUGAAGUUUAUCAUG	≤ -4.2
GGAUCUUCUCGAUCUAACAAAAAAGACAAAUCUGCCACAAAGCUUGAGAGUAUCUUCGGGUGCAGCGGCGGCAGCCUUCGGCGGCGCGAUAGCACCAACGUUCUCAACAAUGACACGCAAAACGCGUGCUCCGUUAACUGGAGUUUAUCAUG	≤ -4.2
GGAUCUUCUCGAUCUAACAAAAAAGAUAAAUCUGCCACAAAGCUUGAGAGCAUGUUCGGAUGCAGAGGCGGCAGCCUUCGGUGACGCGAUAGCGGCAACGUUCUCAACUAUGACACGCAAAGCGCGUGCUCCGUUGAAUGGAGUUUAUCAUG	-2.89
GGAUCUUCUCGAUCUAACAAAAAAGACAAAUCUGUCACAAAGCUAGAGAGCAUCUUCGCAUGCAGAGGCGGCAGCCUUCGGUGGCGCGAUAGGGCCAACGUUCUCAACUAUGACACGCAAAACGCGUGCUCCGUUGAAUGGAGAUUAUCAUG	≤ -4.2
GGAUCUUCUCGAUCUAACAAAAAAGACAAAUCUGCCACAAAGCUUGAGAUCGUCUUCGGAUGCAGAGGCGGCAGCCUUCGGUGGCGCGAUAGCGCCAAGGUUCUCAACUAUGACACGCAAAACGCGUGCUCCGUUGAAUGGAGUUUAUCAUG	-2.55
